PMC9313502 (Advanced Science, 2022)

Molecular target: Biotinylated recombinant human TNF‐α (human, UniProt P01375 77-233, biotin on primary amines (lysine conjugation, NHS-PEG4-biotin))
Test: ELISA; sparsely biotinylated hTNF-α (7.5 nM) held on avidin-coated 96-well plates; hTNFR1-ECD-HRP in solution, read at 450 nm with TMB; apparent EC50
Conditions: both partners purified

Chain of Biotinylated recombinant human TNF‐α (P01375 77-233): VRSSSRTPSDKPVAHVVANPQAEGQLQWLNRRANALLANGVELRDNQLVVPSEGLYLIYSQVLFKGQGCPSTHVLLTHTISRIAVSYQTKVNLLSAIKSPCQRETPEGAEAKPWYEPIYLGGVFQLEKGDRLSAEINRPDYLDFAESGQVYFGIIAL

EC50: 4.6 nM
B1: HRP‐tagged human TNF‐α receptor 1 extracellular domain (receptor)
chain: RDSVCPQGKYIHPQNNSICCTKCHKGTYLYNDCPGPGQDTDCRECESGSFTASENHLRHCLSCSKCRKEMGQVEISSCTVDRDTVCGCRKNQYRHYWSENLFQCFNCSLCLNGTVHLSCQEKQNTVCTCHAGFFLRENECVSCSNCKKSLECTKLCLPQIEN
modifications: conjugated to horse‐radish peroxidase (HRP Conjugation Kit, Proteintech PK20001)
